38 molecules from US20190382493A1 (CYTOMX THERAPEUTICS, published 2019) can be followed below.

T1: human B7-1-Fc (R&D Systems) (human, UniProt P33681 35-242)
T1 construct: not shown: Fc part of the bought fusion protein; not described
T1 sequence (looked up): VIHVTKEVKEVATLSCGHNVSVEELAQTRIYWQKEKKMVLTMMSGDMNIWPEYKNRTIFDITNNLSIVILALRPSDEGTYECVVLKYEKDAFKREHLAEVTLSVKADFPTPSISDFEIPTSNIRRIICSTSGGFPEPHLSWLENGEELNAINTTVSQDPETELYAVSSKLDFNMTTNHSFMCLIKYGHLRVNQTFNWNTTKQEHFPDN

B1: PDL1 A05 Fab-phage (Fab, V domains shown)
VH: EVQLLESGGGLVQPGGSLRLSCAASGFTFSSYAMSWVRQAPGKGLEWVSSIWKQGIVTVYDSVKGRFTISRDNSKNTLYLQMNSLRAEDTAVYYCAKSSAGFDYWGQGTLVTV
VL: DIQMTQSPSSLSASVGDRVTITCRASQSISSYLNWYQQKPGKAPKLLIYYASTLQSGVPSRFSGSGSGTDFTLTISSLQPEDFATYYCQQDNGYPSTFGQGTKVEIKR
B2: PDL1 G12 Fab-phage (Fab, V domains shown)
VH: EVQLLESGGGLVQPGGSLRLSCAASGFTFSSYAMSWVRQAPGKGLEWVSSIWYQGLVTVYDSVKGRFTISRDNSKNTLYLQMNSLRAEDTAVYYCAKSSAGFDYWGQGTLVTVSS
VL: B1 VL
B3: PDL1 E11 Fab-phage (Fab, V domains shown)
VH: EVQLLESGGGLVQPGGSLRLSCAASGFTFSSYAMSWVRQAPGKGLEWVSDIWKQGFATADSVKGRFTISRDNSKNTLYLQMNSLRAEDTAVYYCAKSSAGFDYWGQGTLVTVSS
VL: B1 VL
B4: PDL1 G09 Fab-phage (Fab, V domains shown)
VH: B2 VH with S50E, W52V, Y53A, Q54T, L56I, V57L, V59S
VL: B1 VL
B5: PDL1 C05 Fab-phage (Fab, V domains shown)
VH: B2 VH with Y53R, Q54N, L56I
VL: B1 VL
B6: PDL1 G10 Fab-phage (Fab, V domains shown)
VH: B2 VH with W52G, Y53R, V57I
VL: B1 VL
B7: PDL1 D08 Fab-phage (Fab, V domains shown)
VH: B2 VH with Y53R, V57A, V59A
VL: B1 VL
B8: PDL1 D01 Fab-phage (Fab, V domains shown)
VH: B2 VH with Y53K, L56I
VL: B1 VL
B9: PDL1 C10 Fab-phage (Fab, V domains shown)
VH: B2 VH with S50D, Y53K, L56M
VL: B1 VL
B10: PDL1 H06 Fab-phage (Fab, V domains shown)
VH: B2 VH with Y53R, V57A, V59A
VL: B1 VL
B11: anti-PDL1 antibody G12B10 (antibody, V domains shown)
VH: EVQLLESGGGLVQPGGSLRLSCAASGFTFSSYAMSWVRQAPGKGLEWVSSIWYQGLVTVYADSVKGRFTISRDNSKNTLYLQMNSLRAEDTAVYYCAKWSAGYDYWGQGTLVTVSS
VL: B1 VL
notes: Fully human IgG; also called PDL1 G12B10
B12: anti-PDL1 antibody G12H9 (antibody, V domains shown)
VH: B11 VH with G102A, Y103F
VL: B1 VL
notes: Fully human IgG; also called PDL1 G12H9
B13: anti-PDL1 antibody G12E10 (antibody, V domains shown)
VH: B11 VH with A101K, Y103F
VL: B1 VL
notes: Fully human IgG; also called PDL1 G12E10

Numbering of substitutions follows the chain as printed.

For the first assay, the target named is T1, human B7-1-Fc (R&D Systems). Put plainly: Fab-phage ELISA, antigen adsorbed. The source says: Forty seven (47) individual isolates were chosen from the final pool. […] Briefly, the antigens were adsorbed to the wells of a 96-well ELISA plate, each ligand on a separate plate. Phage were applied to correlative wells on each plate and allowed to bind. Bound phage were visualized with an anti-M13-HRP conjugate and developed with the chromogenic substrate TMB. Based on the results of the ELISA and DNA sequence, 6 unique clones with matured heavy variable CDR3 domains and 10 heavy variable CDR2 domains were chosen for further study. […] Table 4 lists the heavy variable domains encoded by the clones and SEQ ID NOs for the nucleic acid sequences and amino acid sequences of their respective heavy chains.
In general terms: An ELISA detects its analyte on a solid surface through an enzyme-linked reagent.
In the case of B1, the binding result is recorded as “no binding”.
Same read-out and setting: the entry for B2 is “no binding”; for B3 it is “no binding”.
On the same count and under the same terms, in the case of B4 it was “no binding”; in that of B5, “no binding”; in that of B6, “no binding”.
The same measure, in the same setting: the entry for B7 is “no binding”; for B8 it is “no binding”.
B9: the binding result was “no binding”.
Consider B10, for which the binding result is “no binding”.

A further assay deals with Fab of anti-PDL1 antibody C5H9v2. Put plainly: binding of Fab to peptide-displaying clones.
With YCEVSELFVLPWCMG [masking moiety PL01], the binding result is recorded as “binds”.
Same read-out and setting: in the case of FGPRCGEASTCVPYE [masking moiety PL05] it was “binds”; in that of IFCHMGVVVPQCANY [masking moiety PL15], “binds”.
The same measure, in the same setting: in the case of LCDLFKLREFPYCMG [masking moiety PL13] it was “binds”; in that of ILYCDSWGAGCLTRP [masking moiety PL06], “binds”.
The same measure, in the same setting: the entry for PCYWHPFFAYRYCNT [masking moiety PL11] is “binds”.
With VCYYMDWLGRNWCSS [masking moiety PL12], the binding result was “binds”.
Same read-out and setting: in the case of PCHPHPYDARPYCNV [masking moiety PL10] it was “binds”; in that of PCHPHPYDARPYCAV (differs from PL10 by one alanine) [masking moiety PL23], “binds”; in that of PCHPAPYDARPYCNV (differs from PL10 by one alanine) [masking moiety PL17], “binds”.
On the same count and under the same terms, the entry for PCHPHPYAARPYCNV (differs from PL10 by one alanine) [masking moiety PL20] is “binds”.
Still for that read-out and setting: the entry for PCHPHPYDARPACNV (differs from PL10 by one alanine) [masking moiety PL22] is “binds”; for PCHPHPYDARAYCNV (differs from PL10 by one alanine) [masking moiety PL25] it is “binds”.
For ACHPHPYDARPYCNV (differs from PL10 by one alanine) [masking moiety PL16], the binding result was “binds”.
Still for that read-out and setting: the entry for PCHAHPYDARPYCNV (differs from PL10 by one alanine) [masking moiety PL24] is “binds”; for PCHPHPADARPYCNV (differs from PL10 by one alanine) [masking moiety PL19] it is “binds”.
Regarding PCHPHPYDAAPYCNV (differs from PL10 by one alanine) [masking moiety PL21], the binding result is “binds”.
For the molecule PCHPHAYDARPYCNV (differs from PL10 by one alanine) [masking moiety PL18], the binding result is given as “binds”.
On the same count and under the same terms, the entry for LCYKLDYDDRSYCHI [masking moiety PL09] is “binds”; for LCEVLMLLQHPWCMG [masking moiety PL03] it is “binds”; for YLPCHFVPIGACNNK [masking moiety PL14] it is “binds”.
Same read-out and setting: in the case of IACRHFMEQLPFCHH [masking moiety PL04] it was “binds”; in that of GIALCPSHFCQLPQT [masking moiety PL07], “binds”; in that of DGPRCFVSGECSPIG [masking moiety PL08], “binds”.
Same read-out and setting: the entry for SCLMHPHYAHDYCYV [masking moiety PL02] is “binds”.

In another assay the target is T2, anti-PDL1 antibody C5H9v2.
T2 construct: IgG; also called anti-PDL1 parental antibody C5H9v2
The assay can be described thus: binding of antibody to peptide-displaying clones.
Regarding YCEVSELFVLPWCMG [masking moiety PL01], the binding result is listed as “binds”.
The same measure, in the same setting: the entry for FGPRCGEASTCVPYE [masking moiety PL05] is “binds”.
Still for that read-out and setting: in the case of IFCHMGVVVPQCANY [masking moiety PL15] it was “binds”; in that of LCDLFKLREFPYCMG [masking moiety PL13], “binds”.
On the same count and under the same terms, in the case of ILYCDSWGAGCLTRP [masking moiety PL06] it was “binds”; in that of PCYWHPFFAYRYCNT [masking moiety PL11], “binds”.
Regarding VCYYMDWLGRNWCSS [masking moiety PL12], the binding result was “binds”.
For the molecule PCHPHPYDARPYCNV [masking moiety PL10], the binding result is “binds”.
Still for that read-out and setting: the entry for PCHPHPYDARPYCAV (differs from PL10 by one alanine) [masking moiety PL23] is “binds”; for PCHPAPYDARPYCNV (differs from PL10 by one alanine) [masking moiety PL17] it is “binds”; for PCHPHPYAARPYCNV (differs from PL10 by one alanine) [masking moiety PL20] it is “binds”.
On the same count and under the same terms, the entry for PCHPHPYDARPACNV (differs from PL10 by one alanine) [masking moiety PL22] is “binds”; for PCHPHPYDARAYCNV (differs from PL10 by one alanine) [masking moiety PL25] it is “binds”; for ACHPHPYDARPYCNV (differs from PL10 by one alanine) [masking moiety PL16] it is “binds”.
Take PCHAHPYDARPYCNV (differs from PL10 by one alanine) [masking moiety PL24]: the binding result is recorded as “binds”.
The same measure, in the same setting: the entry for PCHPHPADARPYCNV (differs from PL10 by one alanine) [masking moiety PL19] is “binds”.
On the same count and under the same terms, the entry for PCHPHPYDAAPYCNV (differs from PL10 by one alanine) [masking moiety PL21] is “binds”; for PCHPHAYDARPYCNV (differs from PL10 by one alanine) [masking moiety PL18] it is “binds”; for LCYKLDYDDRSYCHI [masking moiety PL09] it is “binds”.
As to LCEVLMLLQHPWCMG [masking moiety PL03], the binding result was “binds”.
On to YLPCHFVPIGACNNK [masking moiety PL14], for which the binding result was “binds”.
Same read-out and setting: the entry for IACRHFMEQLPFCHH [masking moiety PL04] is “binds”.
For GIALCPSHFCQLPQT [masking moiety PL07], the binding result is “binds”.
The same measure, in the same setting: in the case of DGPRCFVSGECSPIG [masking moiety PL08] it was “binds”.
The same measure, in the same setting: in the case of SCLMHPHYAHDYCYV [masking moiety PL02] it was “binds”.

Another assay deals with T3, human PDL1-Fc (R & D Systems) (human, UniProt Q9NZQ7 19-239).
T3 construct: Bought reagent; not shown: Fc part of the bought fusion protein; not described
T3 sequence (Q9NZQ7 19-239 limits assumed): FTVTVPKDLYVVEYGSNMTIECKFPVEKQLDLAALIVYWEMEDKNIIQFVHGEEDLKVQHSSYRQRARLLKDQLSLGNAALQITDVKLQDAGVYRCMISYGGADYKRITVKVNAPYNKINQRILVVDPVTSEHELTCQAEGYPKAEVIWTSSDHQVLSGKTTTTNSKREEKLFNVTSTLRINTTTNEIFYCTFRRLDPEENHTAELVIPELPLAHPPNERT
The assay can be described thus: ELISA, PDL1-Fc adsorbed, anti-human IgG (Fab specific)-HRP. The procedure:
Bound antibody was visualized with an anti-human IgG-HRP conjugate, Fab specific, (Sigma, St Louis, Mo.; Cat # A0293-1ML) and developed with the chromogenic substrate TMB. […] Table 5 provides the SEQ ID NOs for the nucleic acid sequences and amino acids sequences of the respective variable heavy chains.
Bound antibody was visualized with an anti-human IgG-HRP conjugate, Fab specific, (Sigma, St Louis, Mo.; Cat # A0293-1ML) and developed with the chromogenic substrate TMB.
Consider B11, for which the binding result is “binds”.
In the case of B12, the binding result is given as “binds”.
B13: the binding result is “binds”.
